Here are results for six molecules from PMC5563082, “Structural Mechanism for Modulation of Synaptic Neuroligin-Neurexin Signaling by MDGA Proteins” (Neuron, 2017).

As usually defined, the Kd is the equilibrium constant for the complex coming apart. High values mean weaker binding, low ones tighter binding.

The labels stand for the following.
B1: human NL3(–A)_(ECTO) (Gln38-Asp636), immobilised for SPR (domain or fragment, UniProt Q9NZ94-1 38-636, looked up)
chain: QAPAPTVNTHFGKLRGARVPLPSEILGPVDQYLGVPYAAPPIGEKRFLPPEPPPSWSGIRNATHFPPVCPQNIHTAVPEVMLPVWFTANLDIVATYIQEPNEDCLYLNVYVPTEDDIRDSGAKPVMVYIHGGSYMEGTGNMIDGSILASYGNVIVITLNYRVGVLGFLSTGDQAAKGNYGLLDQIQALRWVSENIAFFGGDPRRITVFGSGIGASCVSLLTLSHHSEGLFQRAIIQSGSALSSWAVNYQPVKYTSLLADKVGCNVLDTVDMVDCLRQKSAKELVEQDIQPARYHVAFGPVIDGDVIPDDPEILMEQGEFLNYDIMLGVNQGEGLKFVEGVVDPEDGVSGTDFDYSVSNFVDNLYGYPEGKDTLRETIKFMYTDWADRDNPETRRKTLVALFTDHQWVEPSVVTADLHARYGSPTYFYAFYHHCQSLMKPAWSDAAHGDEVPYVFGVPMVGPTDLFPCNFSKNDVMLSAVVMTYWTNFAKTGDPNKPVPQDTKFIHTKANRFEEVAWSKYNPRDQLYLHIGLKPRVRDHYRATKVAFWKHLVPHLYNLHD
modifications: biotin on the Avitag (in vivo biotinylation by BirA)
notes: also called NL3_(ECTO); source: HEK293T, co-transfected with ER-resident BirA; dialysed conditioned medium, captured on streptavidin chip
B2: human NL2(+A)_(ECTO), immobilised for SPR (domain or fragment, UniProt Q8NFZ4 38-612, looked up)
chain: EERFPVVNTAYGRVRGVRRELNNEILGPVVQFLGVPYATPPLGARRFQPPEAPASWPGVRNATTLPPACPQNLHGALPAIMLPVWFTDNLEAAATYVQNQSEDCLYLNLYVPTEDGPLTKKRDEATLNPPDTDIRDPGKKPVMLFLHGGSYMEGTGNMFDGSVLAAYGNVIVATLNYRLGVLGFLSTGDQAAKGNYGLLDQIQALRWLSENIAHFGGDPERITIFGSGAGASCVNLLILSHHSEGLFQKAIAQSGTAISSWSVNYQPLKYTRLLAAKVGCDREDSAEAVECLRRKPSRELVDQDVQPARYHIAFGPVVDGDVVPDDPEILMQQGEFLNYDMLIGVNQGEGLKFVEDSAESEDGVSASAFDFTVSNFVDNLYGYPEGKDVLRETIKFMYTDWADRDNGEMRRKTLLALFTDHQWVAPAVATAKLHADYQSPVYFYTFYHHCQAEGRPEWADAAHGDELPYVFGVPMVGATDLFPCNFSKNDVMLSAVVMTYWTNFAKTGDPNQPVPQDTKFIHTKPNRFEEVVWSKFNSKEKQYLHIGLKPRVRDNYRANKVAFWLELVPHLHNLH
modifications: biotin on the Avitag (in vivo biotinylation by BirA)
notes: source: HEK293T, co-transfected with ER-resident BirA; dialysed conditioned medium, captured on streptavidin chip
B3: human NL5_(ECTO) (NL4(Y); Gln42-Glu602), immobilised for SPR (domain or fragment)
chain: QAQYPVVNTNYGKIQGLRTPLPSEILGPVEQYLGVPYASPPTGERRFQPPESPSSWTGIRNATQFSAVCPQHLDERFLLHDMLPIWFTTSLDTLMTYVQDQNEDCLYLNIYVPMEDDIHEQNSKKPVMVYIHGGSYMEGTGNMIDGSILASYGNVIVITINYRLGILGFLSTGDQAAKGNYGLLDQIQALRWIEENVGAFGGDPKRVTIFGSGAGASCVSLLTLSHYSEGLFQKAIIQSGTALSSWAVNYQPAKYTRILADKVGCNMLDTTDMVECLKNKNYKELIQQTITPATYHIAFGPVIDGDVIPDDPQILMEQGEFLNYDIMLGVNQGEGLKFVDGIVDNEDGVTPNDFDFSVSNFVDNLYGYPEGKDTLRETIKFMYTDWADKENPETRRKTLVALFTDHQWVAPAVATADLHAQYGSPTYFYAFYHHCQSEMKPSWADSAHGDEVPYVFGIPMIGPTELFSCNFSKNDVMLSAVVMTYWTNFAKTGDPNQPVPQDTKFIHTKPNRFEEVAWSKYNPKDQLYLHIGLKPRVRDHYRATKVAFWLELVPHLHNLNE
modifications: biotin on the Avitag (in vivo biotinylation by BirA)
notes: human neuroligin-5 (neuroligin-4, Y-linked), Gln42-Glu602; source: HEK293T, co-transfected with ER-resident BirA; dialysed conditioned medium, captured on streptavidin chip
B4: human NL3(+A1)_(ECTO), immobilised for SPR (domain or fragment, UniProt Q9NZ94-1 38-636, looked up)
chain: QAPAPTVNTHFGKLRGARVPLPSEILGPVDQYLGVPYAAPPIGEKRFLPPEPPPSWSGIRNATHFPPVCPQNIHTAVPEVMLPVWFTANLDIVATYIQEPNEDCLYLNVYVPTEDVKRISKECARKPNKKICRKGDIRDSGAKPVMVYIHGGSYMEGTGNMIDGSILASYGNVIVITLNYRVGVLGFLSTGDQAAKGNYGLLDQIQALRWVSENIAFFGGDPRRITVFGSGIGASCVSLLTLSHHSEGLFQRAIIQSGSALSSWAVNYQPVKYTSLLADKVGCNVLDTVDMVDCLRQKSAKELVEQDIQPARYHVAFGPVIDGDVIPDDPEILMEQGEFLNYDIMLGVNQGEGLKFVEGVVDPEDGVSGTDFDYSVSNFVDNLYGYPEGKDTLRETIKFMYTDWADRDNPETRRKTLVALFTDHQWVEPSVVTADLHARYGSPTYFYAFYHHCQSLMKPAWSDAAHGDEVPYVFGVPMVGPTDLFPCNFSKNDVMLSAVVMTYWTNFAKTGDPNKPVPQDTKFIHTKANRFEEVAWSKYNPRDQLYLHIGLKPRVRDHYRATKVAFWKHLVPHLYNLHD
modifications: biotin on the Avitag (in vivo biotinylation by BirA)
notes: as for B2
B5: human NL4_(ECTO) (NL4(X); Gln42-Glu602), immobilised for SPR (domain or fragment)
chain: QAQYPVVNTNYGKIRGLRTPLPNEILGPVEQYLGVPYASPPTGERRFQPPEPPSSWTGIRNTTQFAAVCPQHLDERSLLHDMLPIWFTANLDTLMTYVQDQNEDCLYLNIYVPTEDDIHDQNSKKPVMVYIHGGSYMEGTGNMIDGSILASYGNVIVITINYRLGILGFLSTGDQAAKGNYGLLDQIQALRWIEENVGAFGGDPKRVTIFGSGAGASCVSLLTLSHYSEGLFQKAIIQSGTALSSWAVNYQPAKYTRILADKVGCNMLDTTDMVECLRNKNYKELIQQTITPATYHIAFGPVIDGDVIPDDPQILMEQGEFLNYDIMLGVNQGEGLKFVDGIVDNEDGVTPNDFDFSVSNFVDNLYGYPEGKDTLRETIKFMYTDWADKENPETRRKTLVALFTDHQWVAPAVATADLHAQYGSPTYFYAFYHHCQSEMKPSWADSAHGDEVPYVFGIPMIGPTELFSCNFSKNDVMLSAVVMTYWTNFAKTGDPNQPVPQDTKFIHTKPNRFEEVAWSKYNPKDQLYLHIGLKPRVRDHYRATKVAFWLELVPHLHNLNE
modifications: biotin on the Avitag (in vivo biotinylation by BirA)
notes: human neuroligin-4 (X-linked), Gln42-Glu602; source: HEK293T, co-transfected with ER-resident BirA; dialysed conditioned medium, captured on streptavidin chip
B6: human NL2(–A)_(ECTO) (Glu38-His612), immobilised for SPR (domain or fragment, UniProt Q8NFZ4 38-612, looked up)
chain: EERFPVVNTAYGRVRGVRRELNNEILGPVVQFLGVPYATPPLGARRFQPPEAPASWPGVRNATTLPPACPQNLHGALPAIMLPVWFTDNLEAAATYVQNQSEDCLYLNLYVPTEDDIRDPGKKPVMLFLHGGSYMEGTGNMFDGSVLAAYGNVIVATLNYRLGVLGFLSTGDQAAKGNYGLLDQIQALRWLSENIAHFGGDPERITIFGSGAGASCVNLLILSHHSEGLFQKAIAQSGTAISSWSVNYQPLKYTRLLAAKVGCDREDSAEAVECLRRKPSRELVDQDVQPARYHIAFGPVVDGDVVPDDPEILMQQGEFLNYDMLIGVNQGEGLKFVEDSAESEDGVSASAFDFTVSNFVDNLYGYPEGKDVLRETIKFMYTDWADRDNGEMRRKTLLALFTDHQWVAPAVATAKLHADYQSPVYFYTFYHHCQAEGRPEWADAAHGDELPYVFGVPMVGATDLFPCNFSKNDVMLSAVVMTYWTNFAKTGDPNQPVPQDTKFIHTKPNRFEEVVWSKFNSKEKQYLHIGLKPRVRDNYRANKVAFWLELVPHLHNLH
modifications: biotin on the Avitag (in vivo biotinylation by BirA)
notes: also called NL2_(ECTO); source: HEK293T, co-transfected with ER-resident BirA; dialysed conditioned medium, captured on streptavidin chip

The target of the first assay is T1, human MDGA1 extracellular domain (MDGA1_(ECTO); Gln19-Lys925) (human, UniProt Q8NFP4-1 19-925).
T1 construct: human MAM domain-containing glycosylphosphatidylinositol anchor protein 1, Gln19-Lys925; Not deglycosylated; also called human MDGA1_(ECTO); source: HEK293T, transient transfection, purified (IMAC, SEC)
T1 sequence (looked up): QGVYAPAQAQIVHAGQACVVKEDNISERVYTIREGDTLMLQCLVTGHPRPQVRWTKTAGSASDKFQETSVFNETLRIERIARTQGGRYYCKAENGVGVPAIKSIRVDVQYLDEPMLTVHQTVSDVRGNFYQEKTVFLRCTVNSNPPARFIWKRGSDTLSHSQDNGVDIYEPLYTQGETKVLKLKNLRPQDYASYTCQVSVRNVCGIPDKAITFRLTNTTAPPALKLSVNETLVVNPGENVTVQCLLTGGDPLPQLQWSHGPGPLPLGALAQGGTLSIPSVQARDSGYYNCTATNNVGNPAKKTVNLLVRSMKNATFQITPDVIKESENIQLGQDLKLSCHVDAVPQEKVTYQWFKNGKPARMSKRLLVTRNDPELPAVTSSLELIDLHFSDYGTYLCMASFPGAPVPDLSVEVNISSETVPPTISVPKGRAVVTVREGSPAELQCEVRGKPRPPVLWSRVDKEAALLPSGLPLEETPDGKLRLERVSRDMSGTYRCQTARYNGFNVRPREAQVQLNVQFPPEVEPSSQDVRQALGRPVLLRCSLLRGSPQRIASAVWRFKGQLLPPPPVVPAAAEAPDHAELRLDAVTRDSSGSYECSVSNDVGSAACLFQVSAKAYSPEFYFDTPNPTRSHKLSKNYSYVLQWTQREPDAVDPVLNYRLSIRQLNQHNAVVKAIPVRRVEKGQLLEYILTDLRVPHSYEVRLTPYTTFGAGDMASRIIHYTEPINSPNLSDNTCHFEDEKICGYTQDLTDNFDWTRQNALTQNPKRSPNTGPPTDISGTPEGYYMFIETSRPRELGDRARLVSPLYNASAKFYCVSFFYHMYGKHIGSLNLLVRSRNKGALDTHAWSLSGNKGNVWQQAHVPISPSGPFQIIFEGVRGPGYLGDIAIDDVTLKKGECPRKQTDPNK
Description: SPR; biotinylated NL_(ECTO)-Avitag variants captured from dialysed conditioned medium on streptavidin CM5 chip (500 RU; 550 RU for the ΔSite series; 1000 RU for NL3 and NL3 Arg451Cys in the R451C series); β-NRX1_(LNS6)(±4), MDGA1_(ECTO), MDGA2_(ECTO) injected, 15 concentrations, two-fold series from 50 μM; TBS-CTB (10 mM Tris pH 7.4, 150 mM NaCl, 3 mM CaCl2, 0.005% Tween-20, 1.0 g/L BSA); equilibrium analysis, 1:1 …. Particulars: both partners purified. A general note: SPR reads the build-up and loss of mass on a sensor chip optically.
As to B1, the binding result is recorded as “binds”.

Regarding B2, the binding result was “binds”.

As for B3, the binding result is on record as “binds”.

For the molecule B4, the binding result was “binds”.

Consider B5, for which the binding result is “binds”.

As to B6, the Kd is ~2000 nM.

The target in the next assay is T2, human MDGA2 extracellular domain (MDGA2_(ECTO); Gln21-Lys927) (human, UniProt Q7Z553 21-927).
T2 construct: human MAM domain-containing glycosylphosphatidylinositol anchor protein 2, Gln21-Lys927; Not deglycosylated; source: HEK293T, transient transfection, purified (IMAC, SEC)
T2 sequence (looked up): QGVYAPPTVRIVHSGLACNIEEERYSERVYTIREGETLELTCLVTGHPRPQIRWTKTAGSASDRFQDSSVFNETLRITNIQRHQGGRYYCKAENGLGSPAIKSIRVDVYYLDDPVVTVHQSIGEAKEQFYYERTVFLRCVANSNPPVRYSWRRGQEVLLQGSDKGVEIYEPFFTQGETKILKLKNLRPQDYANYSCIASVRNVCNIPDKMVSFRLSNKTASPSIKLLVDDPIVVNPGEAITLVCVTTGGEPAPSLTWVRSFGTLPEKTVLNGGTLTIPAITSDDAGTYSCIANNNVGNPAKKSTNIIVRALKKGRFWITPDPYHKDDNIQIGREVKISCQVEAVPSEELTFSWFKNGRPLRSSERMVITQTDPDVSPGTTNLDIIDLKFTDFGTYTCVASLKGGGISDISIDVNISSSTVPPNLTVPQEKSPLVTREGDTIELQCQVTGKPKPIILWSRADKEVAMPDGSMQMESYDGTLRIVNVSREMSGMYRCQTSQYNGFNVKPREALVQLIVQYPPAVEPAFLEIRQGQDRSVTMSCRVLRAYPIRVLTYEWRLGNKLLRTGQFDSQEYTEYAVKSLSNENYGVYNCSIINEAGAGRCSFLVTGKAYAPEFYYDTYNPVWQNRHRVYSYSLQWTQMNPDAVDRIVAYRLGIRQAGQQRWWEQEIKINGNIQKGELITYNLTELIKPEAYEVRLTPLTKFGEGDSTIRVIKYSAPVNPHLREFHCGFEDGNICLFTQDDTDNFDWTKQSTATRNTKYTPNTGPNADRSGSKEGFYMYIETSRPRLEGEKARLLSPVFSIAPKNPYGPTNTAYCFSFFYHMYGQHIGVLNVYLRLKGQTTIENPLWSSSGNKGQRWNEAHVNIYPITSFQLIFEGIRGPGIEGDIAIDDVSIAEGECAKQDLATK
The description is as above. Particulars: both partners purified.
For the molecule B1, the binding result is listed as “binds”.

As for B2, the binding result is on record as “binds”.

With B3, the binding result is listed as “binds”.

As for B4, the binding result was “binds”.

Turning to B5, the binding result is given as “binds”.

For the molecule B6, the Kd was ~1000 nM.
